Laboratory results as given in US20110151450.
Numbering of substitutions follows the chain as printed.

Legend:
Test in all cases: cleavage_in_vitro
[1] = system: StyI-WT (Salmonella typhi); conditions: NEB4, relative activity 25%
[2] = system: StyI-HF K75A (Salmonella typhi); conditions: NEB4, relative activity 50%
[3] = system: BsrDI-WT (BsrDIA + BsrDIB) (Bacillus stearothermophilus); conditions: NEB4, relative activity 25%
[4] = system: BsrDI-HF (BsrDIA + mutant BsrDIB) Q230A/K363A (BsrDIB) (Bacillus stearothermophilus); conditions: NEB4, relative activity 100%
[5] = system: T1, BsaJI-HF D200A (Bacillus stearothermophilus); conditions: NEB4, relative activity 100%
T1 sequence: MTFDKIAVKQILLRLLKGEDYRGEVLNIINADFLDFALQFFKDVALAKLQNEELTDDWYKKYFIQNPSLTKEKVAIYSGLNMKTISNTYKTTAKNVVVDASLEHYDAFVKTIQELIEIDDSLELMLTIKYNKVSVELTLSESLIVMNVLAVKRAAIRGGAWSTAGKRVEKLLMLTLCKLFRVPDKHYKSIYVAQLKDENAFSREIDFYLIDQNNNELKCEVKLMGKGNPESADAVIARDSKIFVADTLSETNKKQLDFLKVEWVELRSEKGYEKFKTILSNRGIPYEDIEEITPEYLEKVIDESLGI

[6] = system: T2, BstNI-WT (Bacillus stearothermophilus); conditions: NEB4, relative activity 50%
T2 sequence: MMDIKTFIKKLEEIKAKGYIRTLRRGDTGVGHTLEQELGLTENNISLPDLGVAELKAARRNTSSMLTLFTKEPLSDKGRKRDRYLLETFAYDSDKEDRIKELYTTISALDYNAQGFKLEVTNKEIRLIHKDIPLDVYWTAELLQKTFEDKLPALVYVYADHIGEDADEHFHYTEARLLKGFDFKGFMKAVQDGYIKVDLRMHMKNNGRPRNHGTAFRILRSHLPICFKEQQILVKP

[7] = system: T3, BstNI-HF G26T (Bacillus stearothermophilus); conditions: NEB4, relative activity 100%
T3 sequence: T2 sequence with G26T

[8] = system: T4, AatII-WT (Acetobacter aceti); conditions: NEB4, relative activity 50%
T4 sequence: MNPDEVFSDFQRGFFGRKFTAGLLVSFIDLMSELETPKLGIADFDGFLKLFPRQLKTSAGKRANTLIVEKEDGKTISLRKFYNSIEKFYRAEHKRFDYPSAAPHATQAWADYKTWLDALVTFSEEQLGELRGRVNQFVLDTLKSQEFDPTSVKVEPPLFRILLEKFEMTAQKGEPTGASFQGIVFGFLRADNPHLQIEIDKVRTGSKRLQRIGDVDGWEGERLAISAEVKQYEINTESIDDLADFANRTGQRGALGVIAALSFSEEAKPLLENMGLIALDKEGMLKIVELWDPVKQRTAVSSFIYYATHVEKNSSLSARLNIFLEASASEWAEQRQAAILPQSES

[9] = system: T5, BsaJI-WT (Bacillus stearothermophilus); conditions: NEB4, relative activity 100%
T5 sequence: T1 sequence with A200D

[10] = system: T6, KasI-WT (Kluyvera ascorbata); conditions: NEB4, relative activity 100%
T6 sequence: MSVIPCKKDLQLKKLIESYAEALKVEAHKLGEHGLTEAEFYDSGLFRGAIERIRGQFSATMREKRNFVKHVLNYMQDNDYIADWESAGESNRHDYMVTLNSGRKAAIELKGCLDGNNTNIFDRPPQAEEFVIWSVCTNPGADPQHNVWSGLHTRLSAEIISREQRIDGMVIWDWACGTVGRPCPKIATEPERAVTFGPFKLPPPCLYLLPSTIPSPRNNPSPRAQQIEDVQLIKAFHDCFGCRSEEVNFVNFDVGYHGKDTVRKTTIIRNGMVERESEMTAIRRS

[11] = system: T7, KasI-HF N251A (Kluyvera ascorbata); conditions: NEB4, relative activity 100%
T7 sequence: T6 sequence with N251A

[12] = system: T8, AatII-HF N235A (Acetobacter aceti); conditions: NEB4, relative activity 100%; Table 1 lists pXba
T8 sequence: T4 sequence with N235A

[13] = system: T9, BsrFI-WT (Bacillus stearothermophilus); conditions: NEB4, relative activity 50%
T9 sequence: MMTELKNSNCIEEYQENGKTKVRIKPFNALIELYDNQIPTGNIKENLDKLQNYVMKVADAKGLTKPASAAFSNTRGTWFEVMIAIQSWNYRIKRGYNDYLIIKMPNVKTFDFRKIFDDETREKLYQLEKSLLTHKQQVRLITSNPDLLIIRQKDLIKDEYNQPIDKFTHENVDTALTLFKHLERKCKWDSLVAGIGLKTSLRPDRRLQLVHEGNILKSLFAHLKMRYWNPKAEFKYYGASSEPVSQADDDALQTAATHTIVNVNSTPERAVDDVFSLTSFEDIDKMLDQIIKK

[14] = biological target: KpnI-WT (Klebsiella pneumoniae) (UniProt P25237); conditions: NEB4, relative activity 50%
[15] = biological target: KpnI-HF D16N/D148E (Klebsiella pneumoniae) (UniProt P25237); conditions: NEB4, relative activity 100%

With lambda DNA, StyI sites the activity (fidelity index) [1] was 16 and the activity (fidelity index) [2] was 4000.
pBR322 plasmid gave an activity (fidelity index) [3] of 0.5, an activity (fidelity index) [4] of over 1000 and an activity (fidelity index) [5] of over 4000. It also gave an activity (fidelity index) [6] of 4, an activity (fidelity index) [7] of 500 and an activity (fidelity index) [8] of 16. The activity (fidelity index) [9] was 64, the activity (fidelity index) [10] was 4 and the activity (fidelity index) [11] was over 16000. It also gave an activity (fidelity index) [12] of over 1000 and an activity (fidelity index) [13] of 16.
In the case of pXba plasmid, KpnI sites, the activity (fidelity index) [14] is reported as 4 and the activity (fidelity index) [15] is reported as over 1e+06.
